From patent publication US20260103522A1 (LONGBIO PHARMA SUZHOU, published 2026) come the findings set out here.

First the molecules themselves.
B1: Her2-specific binding protein DB872 (antibody, human IgG1, kappa)
heavy: EVQLVESGGGLVQPGGSLRLSCAASGFTFTDYTMDWVRQAPGKGLEWVADVNPNSGGSIYNQRFKGRFTLSVDRSKNTLYLQMNSLRAEDTAVYYCARNLGPSFYFDYWGQGTLVTVSSASTKGPSVFPLAPSSKSTSGGTAALGCLVKDYFPEPVTVSWNSGALTSGVHTFPAVLQSSGLYSLSSVVTVPSSSLGTQTYICNVNHKPSNTKVDKKVEPKSCDKTHTCPPCPADSNPRGVSVFLFPPKPKDTLMISRTPEVTCVVVDLAPSKGTVKFNWYVDGVEVHNAKTKPREKQRNGTLTVVSVLTVLHQDWLNGKEYKCKVTHPHLPRALEKTISKAKGQPREPQVYTLPPSREEMTKNQVSLTCLVKGFYPSDIAVEWESNGQPENNYKTTPPVLDSDGSFFLYSKLTVDKSRWQQGNVFSCSVMHEALHNHYTQKSLSLSPGK
light: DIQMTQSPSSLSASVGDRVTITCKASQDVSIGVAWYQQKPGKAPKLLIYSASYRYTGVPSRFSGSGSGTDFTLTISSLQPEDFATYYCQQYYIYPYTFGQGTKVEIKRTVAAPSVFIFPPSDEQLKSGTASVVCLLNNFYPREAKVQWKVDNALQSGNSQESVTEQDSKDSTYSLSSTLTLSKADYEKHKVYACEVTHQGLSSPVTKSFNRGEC
notes: IgG-like molecule: Pertuzumab Fab fused to the engineered Fc (on the basis of DB366); copies: 2 + 2
B2: GPC3-specific binding protein DB-B230 (antibody, human IgG1, kappa)
heavy: QVQLVQSGAEVKKPGASVKVSCKASGYTFTDYEMHWVRQAPGQGLEWMGALDPKTGDTAYSQKFKGRVTLTADKSTSTAYMELSSLTSEDTAVYYCTRFYSYTYWGQGTLVTVSSASTKGPSVFPLAPSSKSTSGGTAALGCLVKDYFPEPVTVSWNSGALTSGVHTFPAVLQSSGLYSLSSVVTVPSSSLGTQTYICNVNHKPSNTKVDKKVEPKSCDKTHTCPPCPADSNPRGVSVFLFPPKPKDTLMISRTPEVTCVVVDLAPSKGTVKFNWYVDGVEVHNAKTKPREKQRNGTLTVVSVLTVLHQDWLNGKEYKCKVTHPHLPRALEKTISKAKGQPREPQVYTLPPSREEMTKNQVSLTCLVKGFYPSDIAVEWESNGQPENNYKTTPPVLDSDGSFFLYSKLTVDKSRWQQGNVFSCSVMHEALHNHYTQKSLSLSPGK
light: DVVMTQSPLSLPVTPGEPASISCRSSQSLVHSNRNTYLHWYLQKPGQSPQLLIYKVSNRFSGVPDRFSGSGSGTDFTLKISRVEAEDVGVYYCSQNTHVPPTFGQGTKLEIKRTVAAPSVFIFPPSDEQLKSGTASVVCLLNNFYPREAKVQWKVDNALQSGNSQESVTEQDSKDSTYSLSSTLTLSKADYEKHKVYACEVTHQGLSSPVTKSFNRGEC
notes: IgG-like molecule: Codrituzumab Fab fused to the engineered Fc; copies: 2 + 2
B3: GPC3-specific binding protein DB-B229 (antibody)
heavy: QVQLVQSGAEVKKPGASVKVSCKASGYTFTDYEMHWVRQAPGQGLEWMGALDPKTGDTAYSQKFKGRVTLTADKSTSTAYMELSSLTSEDTAVYYCTRFYSYTYWGQGTLVTVSSASTKGPSVFPLAPSSKSTSGGTAALGCLVKDYFPEPVTVSWNSGALTSGVHTFPAVLQSSGLYSLSSVVTVPSSSLGTQTYICNVNHKPSNTKVDKKVEPKSCSRDFTPPTVKILQSSCDGGGHFPPTIQLLCLVSGYTPGTINITWLEDGQVMDVDLSTASTTQEGELASTQSELTLSQKHWLSDRTYTCQVTYQGHTFEDSTKKCADSNPRGVSVFLFPPKPKDTLMISRTPEVTCVVVDLAPSKGTVKFNWYVDGVEVHNAKTKPREKQRNGTLTVVSVLTVLHQDWLNGKEYKCKVTHPHLPRALEKTISKAKGQPREPQVYTLPPSREEMTKNQVSLTCLVKGFYPSDIAVEWESNGQPENNYKTTPPVLDSDGSFFLYSKLTVDKSRWQQGNVFSCSVMHEALHNHYTQKSLSLSPGK
light: B2 light
notes: as for B2
B4: binding protein DB-B64 (designed binder)
chain: CPAPELLGGPSVFLFPPKPKDTLMISRTPEVTCVVVDLAPSKGTVKFNWYVDGVEVHNAKTKPREKQRNGTLTVVSVLTVLHQDWLNGKEYKCKVTHPHLPRALEKTISKAKGQPREPQVYTLPPSREEMTKNQVSLTCLVKGFYPSDIAVEWESNGQPENNYKTTPPVLDSDGSFFLYSKLTVDKSRWQQGNVFSCSVMHEALHNHYTQKSLSLSPGK
notes: Engineered IgG Fc with IgE CH3 loops
B5: binding protein DB365 (designed binder)
chain: TKKCADSNPRGVSVFLFPPKPKDTLMISRTPEVTCVVVDLAPSKGTVKFNWYVDGVEVHNAKTKPREKQRNGTLTVVSVLTVLHQDWLNGKEYKCKVTHPHLPRALEKTISKAKGQPREPQVYTLPPSREEMTKNQVSLTCLVKGFYPSDIAVEWESNGQPENNYKTTPPVLDSDGSFFLYSKLTVDKSRWQQGNVFSCSVMHEALHNHYTQKSLSLSPGK
notes: as for B4
B6: Her2-specific binding protein DB871 (antibody)
heavy: EVQLVESGGGLVQPGGSLRLSCAASGFTFTDYTMDWVRQAPGKGLEWVADVNPNSGGSIYNQRFKGRFTLSVDRSKNTLYLQMNSLRAEDTAVYYCARNLGPSFYFDYWGQGTLVTVSSASTKGPSVFPLAPSSKSTSGGTAALGCLVKDYFPEPVTVSWNSGALTSGVHTFPAVLQSSGLYSLSSVVTVPSSSLGTQTYICNVNHKPSNTKVDKKVEPKSCSRDFTPPTVKILQSSCDGGGHFPPTIQLLCLVSGYTPGTINITWLEDGQVMDVDLSTASTTQEGELASTQSELTLSQKHWLSDRTYTCQVTYQGHTFEDSTKKCADSNPRGVSVFLFPPKPKDTLMISRTPEVTCVVVDLAPSKGTVKFNWYVDGVEVHNAKTKPREKQRNGTLTVVSVLTVLHQDWLNGKEYKCKVTHPHLPRALEKTISKAKGQPREPQVYTLPPSREEMTKNQVSLTCLVKGFYPSDIAVEWESNGQPENNYKTTPPVLDSDGSFFLYSKLTVDKSRWQQGNVFSCSVMHEALHNHYTQKSLSLSPGK
light: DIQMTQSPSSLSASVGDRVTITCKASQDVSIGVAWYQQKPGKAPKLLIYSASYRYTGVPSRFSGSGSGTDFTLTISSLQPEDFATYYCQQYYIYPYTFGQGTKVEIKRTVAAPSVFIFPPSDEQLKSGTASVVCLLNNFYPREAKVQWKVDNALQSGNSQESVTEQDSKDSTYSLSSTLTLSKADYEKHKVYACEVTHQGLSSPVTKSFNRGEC
notes: IgG-like molecule: Pertuzumab Fab fused to the engineered Fc (on the basis of DB177); copies: 2 + 2
B7: binding protein DB177 (designed binder)
chain: CSRDFTPPTVKILQSSCDGGGHFPPTIQLLCLVSGYTPGTINITWLEDGQVMDVDLSTASTTQEGELASTQSELTLSQKHWLSDRTYTCQVTYQGHTFEDSTKKCADSNPRGVSVFLFPPKPKDTLMISRTPEVTCVVVDLAPSKGTVKFNWYVDGVEVHNAKTKPREKQRNGTLTVVSVLTVLHQDWLNGKEYKCKVTHPHLPRALEKTISKAKGQPREPQVYTLPPSREEMTKNQVSLTCLVKGFYPSDIAVEWESNGQPENNYKTTPPVLDSDGSFFLYSKLTVDKSRWQQGNVFSCSVMHEALHNHYTQKSLSLSPGK
notes: Engineered human IgG Fc whose CH2 carries BC-LOOP, DE-TURN and FG-LOOP of IgE CH3
B8: binding protein DB366 (designed binder)
chain: CADSNPRGVSVFLFPPKPKDTLMISRTPEVTCVVVDLAPSKGTVKFNWYVDGVEVHNAKTKPREKQRNGTLTVVSVLTVLHQDWLNGKEYKCKVTHPHLPRALEKTISKAKGQPREPQVYTLPPSREEMTKNQVSLTCLVKGFYPSDIAVEWESNGQPENNYKTTPPVLDSDGSFFLYSKLTVDKSRWQQGNVFSCSVMHEALHNHYTQKSLSLSPGK
notes: as for B4
B9: binding protein DB-B63 (designed binder)
chain: B8 chain with K45N, K93R
notes: as for B4
B10: binding protein DB364 (designed binder)
chain: DFTPPTVKILQSSCDGGGHFPPTIQLLCLVSGYTPGTINITWLEDGQVMDVDLSTASTTQEGELASTQSELTLSQKHWLSDRTYTCQVTYQGHTFEDSTKKCADSNPRGVSVFLFPPKPKDTLMISRTPEVTCVVVDLAPSKGTVKFNWYVDGVEVHNAKTKPREKQRNGTLTVVSVLTVLHQDWLNGKEYKCKVTHPHLPRALEKTISKAKGQPREPQVYTLPPSREEMTKNQVSLTCLVKGFYPSDIAVEWESNGQPENNYKTTPPVLDSDGSFFLYSKLTVDKSRWQQGNVFSCSVMHEALHNHYTQKSLSLSPGK
notes: as for B4

Residue numbers refer to the chain shown, from its start.

For the assay, the target named is T1, recombinant human FcεRIa extracellular region-mouse IgG2a Fc-6×His fusion protein (human; mouse, UniProt P12319 26-205).
T1 construct: extracellular domain; Self-produced; also called FcεRIa-mG2Ahis; DB3967; not shown: mouse IgG2a Fc
T1 sequence (P12319 26-205): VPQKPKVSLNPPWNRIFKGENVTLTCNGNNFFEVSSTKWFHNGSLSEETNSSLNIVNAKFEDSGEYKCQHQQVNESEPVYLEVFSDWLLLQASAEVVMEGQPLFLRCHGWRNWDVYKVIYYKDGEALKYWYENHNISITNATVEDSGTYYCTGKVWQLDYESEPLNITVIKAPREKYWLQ
Kind of assay: BLI (GatorBio), FcεRIa-mG2Ahis loaded on Anti-HIS probe, binding protein at 200, 50, 12.5 nM. From the text: In order to verify the binding ability of the binding proteins to FcεRIa, the Bio-layer Interferometry (BLI, GatorBio) was used to detect the affinity of the binding proteins to FcεRIa. The detailed affinity assay method can be found in the usage or application instructions of the GatorBio instrument, which was briefly described as follows: […]
With B1, the equilibrium dissociation constant (Kd) is roughly 1 nM.

Take B2: the Kd is roughly 1 nM.

As to B3, the Kd is roughly 1 nM.

Turning to B4, the Kd is roughly 1 nM.

In the case of B5, the Kd is roughly 1 nM.

B6: the Kd is roughly 1 nM.

B7: the Kd was roughly 1 nM.

Regarding B8, the Kd is roughly 1 nM.

B9: the Kd was roughly 1 nM.

As to B10, the Kd is roughly 1 nM.

In general, Kd refers to the free concentration of one partner at which half of the binding sites on the other are occupied at equilibrium, for simple one-to-one binding.
